The numbers were not newly measured in article PMC6003685, which cites them from elsewhere.

The target of this series is PspF 1-265 (Escherichia coli) (UniProt P37344).

By Kd is commonly meant a measure of binding affinity in units of concentration. As to PspA 1-144 (from UniProt P0AFM6), the Kd is 1000 nM.
